# Measured values published in article PMC6405930, “Conservation of the Amyloid Interactome Across Diverse Fibrillar Structures” (Scientific Reports, 2019).
# How the values were obtained:
# Assay in all cases: Fibril incubation with plasma, quantitative MS/MS of bound proteins
# Ab1 fibrils = test system: T1, Ab1 fibrils; format: binding, human; parameters: key to Identification status of plasma protein bound: Ab1: *: Identified, but not quantified; —: Not identified in any of the samples; conditions: for Relative composition of plasma proteins bound: Ab1: 50:1 w/w plasma protein:fibril
# T1 construct: Synthetic amyloid β peptide 1–40 was purchased from Caslo Aps (Lyngby, Denmark); purchased Caslo Aps (Lyngby, Denmark); host or cells: synthetic peptide
# Protocol: (§1) Plasma and CSF solutions were centrifuged (40,000 g, 20 min) to remove any aggregates. The protein concentration was determined using 280 nm absorbance assuming 1 Abs = 1 mg/mL. Samples with fibril material (20 μg), plasma (500 μg) or CSF (40 μg) proteins were prepared in 200 μL PBS buffer with 5 mM EDTA. Control samples (without fibril material) were prepared similarly. All samples were incubated at room temperature for one hour under gentle agitation. Fibrils and fibril-bound proteins were pelleted by centrifugation at 17,000 g for 30 minutes. The supernatant (175 μL) was removed and the aggregate was re-suspended in 175 μL PBS and pelleted again before further preparation for gel analysis and spin-filter assisted digest for quantitative MS/MS.
# (§2) The fibril-protein pellets were transferred to spin-filters (0.22 μm), washed twice in PBS (100 μL) and once in 1 M NaCl (100 μL). The fibrils and fibril-bound proteins were dissolved by one-hour incubation in 100 μL 6 M guanidinium chloride followed by elution from the spin-filter. The eluted proteins were loaded onto a 3 kDa MWCO filter unit for filter-assisted unfolding, reduction, alkylation, and trypsin digestion. In brief, samples were washed twice in 8 M urea, once in 8 M urea with 50 mM DTT, once in 8 M urea with 50 mM iodoaceteamide, and twice in 8 M Urea. The filter units were dried by centrifugation (14,000 g in 30 minutes) after every addition. Trypsin digestion was carried out with 0.25 μg sequencing grade trypsin from Sigma Aldrich in 50 mM ammonium bicarbonate overnight at 37 °C. The tryptic peptides were collected by centrifugation, acidified with TFA (0.1%) and micro-purified using POROS R2 column material (Applied Biosystems) packed in P200 pipette tips (Sarstedt).
# (§3) LC-MS/MS analyses were performed on an EASY-nLC II system (Thermo Fisher Scientific) connected to a TripleTOF 5600+ mass spectrometer (Sciex) equipped with a NanoSpray III source (Sciex) and operated under Analyst TF 1.6.0 control.
# (§4) The micro-purified tryptic peptides were dissolved in 0.1% formic acid, injected and trapped on an in-house packed trap column (2 cm × 100 μm I.D) with RP ReproSil-Pur C18-AQ 3 μm resin (Dr. Maisch GmbH). Peptides were eluted from the trap column and separated on a 15 cm analytical column (75 μm i.d.) packed in-house in a pulled emitter with RP ReproSil-Pur C18-AQ 3 μm resin (Dr. Maisch GmbH). Elution from the analytical column was performed with a linear gradient from 5% to 35% phase B (90% acetonitrile with 0.1% formic acid) over 20 min for protein identification and 50 min for quantitative analysis, respectively.
# (§5) All samples were analysed three times, yielding nine MS/MS experiments for each fibril for both plasma and CSF. For the area-based extracted ion chromatogram (XIC) quantification, the acquisition method was set up as an information-dependent acquisition (IDA) experiment collecting up to 25 MS/MS spectra in each 1.6 sec cycle using an exclusion window of 6 sec.
# (§6) XIC quantification was based on the average ion intensity of the three most abundant peptides for each protein. Only proteins quantified in at least four out of nine MS/MS experiments per fibril were included in the quantification. The total ion scores were visualized after grouping the proteins according to function (Figure S11).
# (§7) For each MS/MS experiment, the ion intensities of the individual proteins were normalized to the total ion intensity of that MS/MS experiment to achieve a relative protein composition. The contribution of each protein was averaged over all nine MS/MS experiments (Tables 1 and 2).
# Ab2 fibrils = test system: T2, Ab2 fibrils; format: binding, human; parameters: key to Identification status of plasma protein bound: Ab2: *: Identified, but not quantified; —: Not identified in any of the samples; conditions: for Identification status of plasma protein bound: Ab2: symbol cells; for Relative composition of plasma proteins bound: Ab2: 50:1 w/w plasma protein:fibril
# T2 construct: Two structurally distinct fibrils of the Aβ(1–40) peptide associated with AD
# Protocol: as §1, with “Samples with fibril material (20 μg), plasma (500 μg) or CSF (40 μg) proteins were prepared in 200 μL PBS buffer with 5 mM EDTA.” left out
# as §2, §3, §4, §5, §6, §7
# glucagon fibrils = molecular target: T3, glucagon fibrils (Homo sapiens, UniProt P01275); format: binding; parameters: key to Identification status of plasma protein bound: Glucagon: *: Identified, but not quantified; —: Not identified in any of the samples; conditions: for Relative composition of plasma proteins bound: Glucagon: 50:1 w/w plasma protein:fibril
# T3 construct: fibrils of the peptide hormone glucagon
# Protocol: as §1, with “Samples with fibril material (20 μg), plasma (500 μg) or CSF (40 μg) proteins were prepared in 200 μL PBS buffer with 5 mM EDTA.” left out
# as §2, §3, §4, §5, §6, §7
# C-36 fibrils = molecular target: T4, C-36 fibrils (Homo sapiens, UniProt P01009); format: binding; conditions: 50:1 w/w plasma protein:fibril
# T4 construct: the 36 residue C-terminal fragment of α1-antitrypsin (C-36)
# Protocol: as §1, with “Samples with fibril material (20 μg), plasma (500 μg) or CSF (40 μg) proteins were prepared in 200 μL PBS buffer with 5 mM EDTA.” left out
# as §2, §3, §4, §5, §6, §7
# αSN fibrils = αSN fibrils (Homo sapiens, UniProt P37840); format: binding; conditions: 50:1 w/w plasma protein:fibril
# Protocol: as §1, with “Samples with fibril material (20 μg), plasma (500 μg) or CSF (40 μg) proteins were prepared in 200 μL PBS buffer with 5 mM EDTA.” left out
# as §2, §3, §4, §5, §6, §7
# FAS4-AD aggregates = test system: T5, FAS4-AD aggregates; format: binding, human; parameters: key to Identification status of plasma protein bound: FAS4-AD: *: Identified, but not quantified; —: Not identified in any of the samples; conditions: for Identification status of plasma protein bound: FAS4-AD: symbol cells; for Relative composition of plasma proteins bound: FAS4-AD: 50:1 w/w plasma protein:fibril
# T5 construct: aggregates of a mutated version of the FAS1-4 domain of TGFBIp
# Protocol: as §1, with “Samples with fibril material (20 μg), plasma (500 μg) or CSF (40 μg) proteins were prepared in 200 μL PBS buffer with 5 mM EDTA.” left out
# as §2, §3, §4, §5, §6, §7
# T4 sequence (P01009 383-418 limits assumed): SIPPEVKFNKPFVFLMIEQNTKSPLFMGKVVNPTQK
# T3 sequence (P01275 53-81 limits assumed): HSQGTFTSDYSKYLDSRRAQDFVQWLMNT
Substance,Relative composition of plasma proteins bound: Ab1 (Ab1 fibrils),Identification status of plasma protein bound: Ab2 (Ab2 fibrils),Relative composition of plasma proteins bound: Glucagon (glucagon fibrils),Relative composition of plasma proteins bound: C-36 (C-36 fibrils),Relative composition of plasma proteins bound: αSN (αSN fibrils),Relative composition of plasma proteins bound: αSN (αSN fibrils; listed as ApoC-III),Identification status of plasma protein bound: FAS4-AD (FAS4-AD aggregates),Identification status of plasma protein bound: Ab1 (Ab1 fibrils; symbol cells),Identification status of plasma protein bound: Glucagon (glucagon fibrils; symbol cells),Relative composition of plasma proteins bound: FAS4-AD (FAS4-AD aggregates),Relative composition of plasma proteins bound: Ab2 (Ab2 fibrils)
Apolipoprotein C-III: plasma protein bound to fibrils,0.9 ± 0.1 % of total protein,*,0.3 ± 0.0 % of total protein,4.9 ± 0.3 % of total protein,11.7 ± 3.0 % of total protein,11.7 % of total protein,*,–,–,–,–
"Apolipoprotein C-I: plasma protein bound to fibrils (TPDVSSALDKLKEFGNTLEDKARELISRIKQSELSAKMREWFSETFQKVKEKLKIDS; UniProt P02654 27-83, looked up)",–,*,–,0.6 ± 0.4 % of total protein,5.5 ± 2.1 % of total protein,–,–,*,*,1.8 ± 0.1 % of total protein,–
Fibrinogen γ chain: plasma protein bound to fibrils,9.8 ± 0.3 % of total protein,–,6.7 ± 0.3 % of total protein,11.7 ± 2.0 % of total protein,7.7 ± 1.3 % of total protein,–,–,–,–,1.5 ± 0.4 % of total protein,7.0 ± 0.3 % of total protein
Coagulation factor IX: plasma protein bound to fibrils,0.2 ± 0.0 % of total protein,–,0.1 ± 0.0 % of total protein,0.2 ± 0.0 % of total protein,0.3 ± 0.1 % of total protein,–,*,–,–,–,0.3 ± 0.1 % of total protein
Fibrinogen β chain: plasma protein bound to fibrils,11.8 ± 1.1 % of total protein,–,8.9 ± 1.1 % of total protein,9.1 ± 0.8 % of total protein,7.7 ± 2.3 % of total protein,–,–,–,–,1.8 ± 0.2 % of total protein,7.5 ± 0.9 % of total protein
Vitamin K-dependent protein S: plasma protein bound to fibrils,1.1 ± 0.0 % of total protein,–,0.8 ± 0.1 % of total protein,0.6 ± 0.1 % of total protein,2.5 ± 0.1 % of total protein,–,*,–,–,–,1.3 ± 0.1 % of total protein
